Earlier results, collected in article PMC9866218, “Characterization and Chemical Synthesis of Cm39 (α-KTx 4.8): A Scorpion Toxin That Inhibits Voltage-Gated K^+ Channel KV1.2 and Small- and Intermediate-Conductance Ca^2+-Activated K^+ Channels KCa2.2 and KCa3.1” (Toxins, 2023).
Read-outs that look alike come from different tables or passages of the source.

Tests used:
[1] = molecular target: KCa3.1 (Homo sapiens) (UniProt O15554)
[2] = molecular target: KCa3.1 (Homo sapiens) (UniProt O15554); remark: listed apart in the source

Sequence of KCa3.1 (Homo sapiens) (O15554 whole entry): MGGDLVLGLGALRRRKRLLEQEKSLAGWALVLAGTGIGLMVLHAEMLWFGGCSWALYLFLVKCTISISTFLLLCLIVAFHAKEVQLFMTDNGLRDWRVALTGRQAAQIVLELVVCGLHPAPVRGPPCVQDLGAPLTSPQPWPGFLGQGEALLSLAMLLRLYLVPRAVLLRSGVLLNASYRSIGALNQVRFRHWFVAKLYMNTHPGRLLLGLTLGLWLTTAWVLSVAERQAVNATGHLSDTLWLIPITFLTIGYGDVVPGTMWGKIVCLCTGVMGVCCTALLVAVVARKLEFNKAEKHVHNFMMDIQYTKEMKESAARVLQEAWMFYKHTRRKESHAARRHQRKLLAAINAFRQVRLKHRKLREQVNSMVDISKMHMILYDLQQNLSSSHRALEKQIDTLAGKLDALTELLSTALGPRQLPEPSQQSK
Sequence of maurotoxin (MTX, α-KTx-6.2) (P80719 whole entry): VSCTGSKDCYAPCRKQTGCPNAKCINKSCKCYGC
Sequence of charybdotoxin (ChTx, α-KTx-1.1) (P13487 23-59): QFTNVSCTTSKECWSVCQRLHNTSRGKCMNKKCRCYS

| Substance | Kd [1] | Kd [2] |
| --- | --- | --- |
| charybdotoxin (ChTx, α-KTx-1.1) (from UniProt P13487) | 5 nM | – |
| maurotoxin (MTX, α-KTx-6.2) (from UniProt P80719) | – | 1 nM |
